Assay results as given in patent KR20170021349A, “다양한 질병의 치료를 위한 jnk 신호 전달 경로의 세포 투과성 펩타이드 억제자의 새로운 용도” (자이겐 인플라메이션 리미티드, priority 2014, dated 2017).
Where “and” joins values, the source holds several entries; their conditions need not be identical. Equal values may be shown once.

Legend:
[1] = system: Brown Norway rats; assay: STZ diabetic retinopathy prevention, intravitreal, ERG; format: in vivo, rat
[2] = Phase II trial, post-surgery intraocular inflammation, vs dexamethasone eye drops; format: in vivo, human
[3] = system: Mapk14f/f and Mapk14Δli* mice; assay: DEN-induced hepatocyte proliferation (Ki67) in Mapk14-deficient mice; format: in vivo, mouse; conditions: 20 mg/kg i.p. before DEN, 48 h
[4] = system: HCT 116 tumours in SCID mice; assay: Orthotopic HCT 116 human colon tumour; format: in vivo, mouse
[5] = system: Wistar rats; assay: Renal ischemia/reperfusion, 40 min clamping; format: in vivo, rat; conditions: 2 mg/kg i.v. 1 h after clamping; 24 h
[6] = system: female Sprague-Dawley rats; assay: Cystometry in conscious rats with CYP-induced cystitis; format: in vivo, rat; conditions: 2 mg/kg i.v.; 30-60 min post-dose; P<0.01
[7] = system: murine T cells; assay: PMA & ionomycin-induced cytokine production in primary cells; format: cell-based, mouse; conditions: Fig. 28 D-E
[8] = Ocular pharmacokinetics after single and repeated subconjunctival administration; format: in vivo, rabbit

NH2-DQSRPVQPFLNLTTPRKPRPPRRRQRRKKRG-COOH (H-DQSRPVQPFLNLTTPRKPRPPRRRQRRKKRG-OH; also: D-amino acids (positions not given here)) [XG-102]
scotopic single flash -10dB A-wave amplitude ([1]; 2 μg/eye, day 13): -152 μV | scotopic single flash -30dB B-wave amplitude ([1]; 2 μg/eye, day 13): 292 μV | OP#1 scotopic single flash 0dB amplitude ([1]; 2 μg/eye, day 20): 26 μV | OP#2 scotopic single flash 0dB amplitude ([1]; 2 μg/eye, day 20): 49 μV | OP#3 scotopic single flash 0dB amplitude ([1]; 2 μg/eye, day 20): 137 μV | OP#4 scotopic single flash 0dB amplitude ([1]; 2 μg/eye, day 20): 130 μV | photopic 1Hz flicker A-wave amplitude ([1]; 2 μg/eye, day 20): -2 μV | photopic 1Hz flicker B-wave amplitude ([1]; 2 μg/eye, day 20): 45 μV | photopic 29Hz flicker B-wave amplitude ([1]; 2 μg/eye, day 20): 9 μV | scotopic single flash 0dB A-wave amplitude ([1]; 2 μg/eye, day 20): -147 μV | scotopic single flash 0dB B-wave amplitude ([1]; 2 μg/eye, day 20): 278 μV | scotopic single flash -10dB A-wave amplitude ([1]; 2 μg/eye, day 20): -84 μV | scotopic single flash -30dB B-wave amplitude ([1]; 2 μg/eye, day 20): 166 μV | substance-related deaths ([1]; 0.2 and 2 μg/eye IVT): XG-102 관련된 사망은 없었다 | overall effect on decrease of ERG wave amplitudes ([1]; rat, in vivo): 웨이브 진폭의 감소를 역전시키는 경향이 있다 | vascular leakage on fluorescein angiography ([1]; rat, in vivo): 혈관 누출을 나타내지 않았고 | AEs leading to interruption of study treatment, events (%) ([2]; 90 μg): 11 (14.1%) | mild AEs, number of events (% of reported events) ([2]; 90 μg): 55 (70.5%) | moderate AEs, number of events (%) ([2]; 90 μg): 6 (7.7%) | patients with an AE within 24 h of administration ([2]; 90 μg): 34% | patients with intraocular pressure increased ([2]; 90 μg): 23% | severe AEs, number of events (%) ([2]; 90 μg): 17 (21.7%) | SOC eye disorders, patients ([2]; 90 μg (26 patients), p=0.025 vs dexamethasone): 55% | premature withdrawal of study eye drops, patients (%) ([2]; 90 μg (N=47)): 10 (21.3%) | overall tolerability ([2]; 90 μg and 900 μg): 내약성이 우수하였다 | anterior chamber cell grade vs dexamethasone, days 7 and 14 ([2]; 90 μg and 900 μg, FAS): 통계적으로 현저한 차이가 없었다 | anterior chamber flare grade vs dexamethasone, days 7, 14, 28 ([2]; 90 μg and 900 μg, FAS): 통계적으로 현저한 차이가 없었다 | difference in anterior chamber cell grade vs dexamethasone, day 28 ([2]; 90 μg single subconj. inj., PP, 95% CI -0.214-0.385, p=0.003): 0.086 | patients with an adverse event ([2]; 90 μg, 31/47): 66% | difference in anterior chamber cell grade vs dexamethasone, day 28 ([2]; 90 μg, FAS, 95% CI -0.215-0.321, p<0.001): 0.053 | odds of cleared ocular inflammation vs usual treatment group ([2]; 90 μg, FAS, day 7): 0.52 | odds of cleared ocular inflammation vs usual treatment group ([2]; 90 μg, FAS, day 14): 0.85 | odds of cleared ocular inflammation vs usual treatment group ([2]; 90 μg, FAS, day 28): 1.24 | odds of cleared ocular inflammation vs usual treatment group ([2]; 90 μg, PP, day 7): 0.56 | odds of cleared ocular inflammation vs usual treatment group ([2]; 90 μg, PP, day 14): 0.97 | odds of cleared ocular inflammation vs usual treatment group ([2]; 90 μg, PP, day 28): 1.45 | patients with rescue medication introduced ([2]; 90 μg, p=0.013 vs dexamethasone): 21.3% | AEs leading to interruption of study treatment, events (%) ([2]; 900 μg): 8 (11.6%) | mild AEs, number of events (%) ([2]; 900 μg): 49 (71.0%) | moderate AEs, number of events (%) ([2]; 900 μg): 12 (17.4%) | patients with an AE within 24 h of administration ([2]; 900 μg): 27% | patients with intraocular pressure increased ([2]; 900 μg): 10% | severe AEs, number of events (%) ([2]; 900 μg): 8 (11.6%) | SOC eye disorders, patients ([2]; 900 μg (24 patients)): 50% | premature withdrawal of study eye drops, patients (%) ([2]; 900 μg (N=48)): 8 (16.7%) | difference in anterior chamber cell grade vs dexamethasone, day 28 ([2]; 900 μg single subconj. inj., PP, 95% CI -0.350-0.242, non-inferior p<0.001): -0.054 | patients with an adverse event ([2]; 900 μg, 32/48): 67% | difference in anterior chamber cell grade vs dexamethasone, day 28 ([2]; 900 μg, FAS, 95% CI -0.301-0.238, p<0.001): -0.032 | odds of cleared ocular inflammation vs usual treatment group ([2]; 900 μg, FAS, day 7): 0.76 | odds of cleared ocular inflammation vs usual treatment group ([2]; 900 μg, FAS, day 14): 1.25 | odds of cleared ocular inflammation vs usual treatment group ([2]; 900 μg, FAS, day 28): 1.13 | odds of cleared ocular inflammation vs usual treatment group ([2]; 900 μg, PP, day 7): 0.84 | odds of cleared ocular inflammation vs usual treatment group ([2]; 900 μg, PP, day 14): 1.12 | odds of cleared ocular inflammation vs usual treatment group ([2]; 900 μg, PP, day 28): 1.26 | patients with rescue medication introduced ([2]; 900 μg, not significant vs dexamethasone): 14.6% | hyperproliferation of Mapk14-/- hepatocytes (Ki67) [3]: 되돌린다 | mice with more than 1 liver metastasis ([4]; 0.1 mg/kg PO): 25% | mean body weight change at D-2 ([4]; 0.1 mg/kg/adm PO): 7.1±4.6% | number of mice without liver metastasis ([4]; 1 mg/kg PO): 가장 높았으며 | mice with more than 1 liver metastasis ([4]; 1 mg/kg PO, vehicle 40%): 12.5% | mice with more than 1 liver metastasis ([4]; 1 mg/kg SC): 25% | mortality D0-D9 (surgical complications) in the four treated groups, as listed ([4]; PO/SC 0.1 and 1 mg/kg Q1Dx14, vehicle 33%, group order not given): 40% and 34% and 47% | tolerance of treatment ([4]; Q1Dx14): 내약(tolerated)되었음 | serum creatinine vs untreated ischemic rats [5]: 보다 낮은 혈청 크레아티닌을 보였다 | intercontraction interval (ICI) and bladder capacity (BC) vs basal [6]: 현저하게 증가시켰다 | threshold pressure (ThP) vs basal [6]: 현저한 감소 | PMA & ionomycin-induced TNFa, IFNg production [7]: 사이토카인 방출을 억제한다 | presence in choroid, bulbar conjunctiva, iris-ciliary body ([8]; 7 days after administration): 여전히 존재함 | detection in plasma ([8]; rabbit, in vivo): 항상 검출되지 않았다
